Measured values: patent publication US20210340252A1 (WUXI BIOLOGICS IRELAND, published 2021)
Numbering of substitutions follows the chain as printed. Names and notes keep the numbering of the source. Each block holds one binder with its values, some of them ahead of it.

What was measured:
hTIM-3.ECD.MBPHis = target: T1, hTIM-3.ECD.MBPHis (human, UniProt Q8TDQ0 22-202); assay: SPR Biacore 8K, antibody captured on anti-human IgG Fc CM5 chip, hTIM-3.ECD.MBPHis as analyte, 1:1 fit
T1 construct: extracellular domain; Made in Expi293 cells; also called human TIM-3.ECD.MBPAVIHIS; not shown: C-terminal MBP / AVI / 6xHis tag

CynoTIM-3.ECD.Fc = target: T2, CynoTIM-3.ECD.Fc (cynomolgus monkey, UniProt A0A2K5U3G7 22-195); assay: SPR Biacore 8K, cynoTIM-3.ECD.Fc immobilised on CM5 chip, antibody as analyte (avidity), 1:1 fit
T2 construct: extracellular domain; also called Cynomolgus TIM-3, hFc tag; not shown: Fc tag
T2 sequence: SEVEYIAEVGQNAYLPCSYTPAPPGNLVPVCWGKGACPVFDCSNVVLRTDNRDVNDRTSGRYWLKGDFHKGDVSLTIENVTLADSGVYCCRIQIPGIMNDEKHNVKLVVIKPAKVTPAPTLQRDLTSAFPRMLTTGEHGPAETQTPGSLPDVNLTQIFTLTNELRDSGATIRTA

[1] = target: T3, human TIM-3, full length, on cells (human, UniProt Q8TDQ0 22-301); assay: flow cytometry on hTIM-3-expressing transfectant cells, PE goat anti-human IgG-Fc
T3 construct: whole, on cells; also called hTIM-3; cell surface human TIM-3

Human TIM-4, His tag = target: T4, Human TIM-4, His tag (human, UniProt Q96H15 25-315, limits assumed); assay: ELISA, plates coated with human TIM-4
T4 construct: Bought protein
T4 sequence (looked up): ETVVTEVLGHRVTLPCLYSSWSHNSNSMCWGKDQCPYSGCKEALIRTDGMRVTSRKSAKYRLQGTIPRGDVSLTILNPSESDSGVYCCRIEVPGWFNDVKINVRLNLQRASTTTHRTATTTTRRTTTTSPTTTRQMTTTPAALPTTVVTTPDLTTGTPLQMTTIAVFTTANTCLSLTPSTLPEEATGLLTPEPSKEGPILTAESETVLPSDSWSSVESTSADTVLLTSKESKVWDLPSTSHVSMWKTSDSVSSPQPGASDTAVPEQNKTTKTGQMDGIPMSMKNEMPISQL

mFc-tagged human TIM-3 = target: T5, mFc-tagged human TIM-3 (human, UniProt Q8TDQ0 22-202, limits assumed); assay: competition, flow cytometry: antibody pre-mixed with mFc-tagged human TIM-3, binding of TIM-3 to PtdSer on apoptotic Jurkat cells, PE anti-mouse IgG Fc; blockade of TIM-3 binding to PtdSer on apoptotic Jurkat cells
T5 construct: the assay text only says mFc-tagged human TIM-3; also called hTIM-3.ECD.mFc; not shown: mouse Fc tag at the C-terminus

[2] = target: human TIM-3 protein (coated on ELISA plates) (human, UniProt Q8TDQ0 22-200, limits assumed); assay: competition ELISA on plate-coated human TIM-3 against biotinylated WBP340-BMK8, detection with SA-HRP
[3] = target: T3, human TIM-3, full length, on cells; assay: FACS binding titration on human TIM-3 transfected cells after incubation of the antibody in human serum
Human TIM-1, His tag = target: T6, Human TIM-1, His tag (human, UniProt Q96D42 21-293, limits assumed); assay: ELISA, plates coated with human TIM-1
T6 construct: Bought protein
T6 sequence (looked up): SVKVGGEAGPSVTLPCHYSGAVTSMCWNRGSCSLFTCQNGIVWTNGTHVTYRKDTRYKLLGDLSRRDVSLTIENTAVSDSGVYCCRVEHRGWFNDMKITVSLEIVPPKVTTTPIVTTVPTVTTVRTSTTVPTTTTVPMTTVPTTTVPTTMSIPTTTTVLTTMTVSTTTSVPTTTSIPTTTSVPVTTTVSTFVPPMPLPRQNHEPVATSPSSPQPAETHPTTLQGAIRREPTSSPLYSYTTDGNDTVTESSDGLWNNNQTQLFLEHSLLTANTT

[4] = target: T7, cynomolgus monkey TIM-3, full length, on transfected cells (cynomolgus monkey, UniProt A0A2K5U3G7 22-294); assay: flow cytometry on cynoTIM-3-expressing transfectant cells, PE goat anti-human IgG-Fc
T7 construct: whole, on cells; cynoTIM-3-expressing transfectant cells; also called cynoTIM-3
T7 sequence: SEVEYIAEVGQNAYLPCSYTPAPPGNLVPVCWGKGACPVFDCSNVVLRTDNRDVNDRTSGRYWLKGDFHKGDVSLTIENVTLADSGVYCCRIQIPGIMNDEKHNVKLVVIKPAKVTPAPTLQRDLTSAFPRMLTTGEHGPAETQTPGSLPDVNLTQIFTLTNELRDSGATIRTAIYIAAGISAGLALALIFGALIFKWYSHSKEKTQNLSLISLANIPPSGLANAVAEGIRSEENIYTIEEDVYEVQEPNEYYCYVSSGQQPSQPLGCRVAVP

[5] = target: T3, human TIM-3, full length, on cells; assay: FACS on PHA-activated human CD4+ T cells (natural TIM-3), detection with PE goat anti-human IgG Fc, MFI

- Kd (hTIM-3.ECD.MBPHis): 0.153 nM
- koff (hTIM-3.ECD.MBPHis): 3.18e-05 s⁻¹
- kon (hTIM-3.ECD.MBPHis): 208000 M⁻¹ s⁻¹
- Kd (CynoTIM-3.ECD.Fc): 0.00452 nM
- koff (CynoTIM-3.ECD.Fc): 7.49e-06 s⁻¹
- kon (CynoTIM-3.ECD.Fc): 1.66e+06 M⁻¹ s⁻¹
B1: W3405-2.61.21-uAb-hIgG4.SPK (V87E) (antibody, V domains shown)
VH: EVQLLEAGGGPVQPGGSLRLSCAAAGFTFSNYAMSWVRQAPGKGLEWVSSISDNGGTAYHADSVQGRFTISRDNSKSTLYLQMNSLRAEDTAVYYCAKDFGDSPGYWGQGTLVTVSS
VL: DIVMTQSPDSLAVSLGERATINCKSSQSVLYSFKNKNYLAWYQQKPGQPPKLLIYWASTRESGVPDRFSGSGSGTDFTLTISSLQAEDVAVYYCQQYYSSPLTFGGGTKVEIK
notes: Human IgG4 (S228P) heavy constant region and kappa light chain; also called mutant_3

- EC50 [1]: 0.13 nM
- binding result (Human TIM-4, His tag): no binding
- Kd (hTIM-3.ECD.MBPHis): 0.138 nM
- koff (hTIM-3.ECD.MBPHis): 3.2e-05 s⁻¹
- kon (hTIM-3.ECD.MBPHis): 232000 M⁻¹ s⁻¹
- Kd (CynoTIM-3.ECD.Fc): 0.006 nM
- koff (CynoTIM-3.ECD.Fc): 1.73e-05 s⁻¹
- kon (CynoTIM-3.ECD.Fc): 2.89e+06 M⁻¹ s⁻¹
- IC50 (mFc-tagged human TIM-3): 20 nM
- IC50 (read off the curve) [2]: ~0.8 nM
- EC50 (read off the curve) [3]: ~0.4 nM
- binding result (Human TIM-1, His tag): no binding
- EC50 [4]: 0.99 nM
- EC50 [5]: 0.096 nM
B2: W3405-2.61.21-uAb-p1-hIgG4.SPK (antibody, V domains shown)
VH: B1 VH with N54Q
VL: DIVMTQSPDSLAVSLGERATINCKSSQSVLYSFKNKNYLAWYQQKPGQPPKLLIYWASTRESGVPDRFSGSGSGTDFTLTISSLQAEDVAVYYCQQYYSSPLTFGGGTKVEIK
notes: Fully human antibody; Constant region of human IgG4 (S228P) heavy chain and human kappa light chain; also called W3405 lead antibody; p1 variant (N→Q)
